The source of these data is patent publication US20040253248A1.

This test has as its target rat neurokinin-1 receptor (NK-1R) (rat) (UniProt P14600).

rat neurokinin-1 receptor (NK-1R) (rat), sequence (P14600 whole entry): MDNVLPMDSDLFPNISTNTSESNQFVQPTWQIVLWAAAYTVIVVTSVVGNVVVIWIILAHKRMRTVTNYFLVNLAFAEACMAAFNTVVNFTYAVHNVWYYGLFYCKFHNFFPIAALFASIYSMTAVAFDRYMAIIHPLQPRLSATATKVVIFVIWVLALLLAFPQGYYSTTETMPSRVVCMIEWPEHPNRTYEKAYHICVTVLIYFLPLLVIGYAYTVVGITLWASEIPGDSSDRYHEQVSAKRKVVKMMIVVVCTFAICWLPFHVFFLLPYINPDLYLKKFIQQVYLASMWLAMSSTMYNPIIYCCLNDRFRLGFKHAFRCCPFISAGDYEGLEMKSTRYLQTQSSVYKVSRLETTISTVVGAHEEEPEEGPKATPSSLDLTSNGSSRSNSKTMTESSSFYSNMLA

The substance “[Sar9, Met (02)11]-SP-SAP (from UniProt P20656 25-277)” showed an IC50 (read off the curve) of 0.2 nM.
